In patent US20220096653A1, “CONJUGATE COMPRISING LIGAND AND CEACAM5 ANTIBODY FAB FRAGMENT” (ASTELLAS PHARMA INC., priority 2019, published 2022):

Assays:
[1] = target: human cancer-specific MUC1 peptide; test: ELISA binding activity of anti-human MUC1 antibody Fab^5 fragment conjugates (Example 6-1); conditions: each conjugate run in duplicate; Table 52; read-out: EC50
Description: (§1) Each anti-human MUC1 antibody Fab^5 fragment conjugate prepared by the method of Example 5 was subjected to ELISA to evaluate the binding activity thereof to human cancer-specific MUC1. In the present test, 20×PBS/Tween 20 Buffer (Thermo Fisher Scientific Inc., 28352) diluted 20-fold with distilled water was used as a wash liquid. In addition, for bovine serum albumin (BSA) used in the present test, 30% Bovine Serum Albumin solution (Sigma-Aldrich, Inc., A9576-50ML) was added in an appropriate proportion for use. A human cancer-specific MUC1 peptide (PTL 1) at 0.5 μmol/L was added to a Nunc MaxiSorp White 384 plate (Nunc, 460372) at 30 μL per well, and the plate was incubated overnight at 4° C. for immobilization. The MUC1 peptide was removed by reverse centrifugation, and then blocking was carried out by adding a PBS/Tween 20 buffer containing 5.0% BSA. Thereafter, the blocking solution was removed by reverse centrifugation, a solution of each anti-human MUC1 antibody Fab^5 fragment conjugate (Ex-No. 104, 108, or 112) described above at about 10000 ng/mL was diluted in 14 steps by 3-fold dilution using a PBS/Tween 20 buffer containing 1.0% BSA, and 30 μL was added per well and incubated at room temperature for 60 minutes. The plate was washed 3 times with a PBS/Tween 20 buffer, and Horseradish Peroxidase-labeled goat anti-human IgK antibody (Southern Biotechnology Associates, Inc.) diluted 10000-fold using a PBS/Tween 20 buffer containing 5.0% BSA was added at 30 μL per well and incubated at room temperature for 30 minutes. The plate was washed 3 times with a PBS/Tween 20 buffer, and ECL Prime Western Blotting DETECTION Reagent (GE Healthcare, RPN2232) as a substrate was added at 30 μL per well. The substrate was incubated at room temperature for 15 minutes, and then a signal value thereof was measured using an Envision counter (PerkinElmer, Inc.).
(§2) The test for each antibody was carried out in duplicate, and the EC50 value was calculated using a 4-parameter logistic curve model.

[2] = design: species or system mice (BALB/c nu/nu); conditions: mouse, in vivo
Description: (§3) A Gd-labeled conjugate of the conjugate containing a peptide linker produced in one of the above Examples was administered from the tail vein of the tumor-bearing mice so that the protein mass was 0.02 mg (100 μL) per animal. As the tumor-bearing mice used in the present Example, mice (BALB/c nu/nu) that were in a tumor-bearing state brought about by transplanting human breast cancer cell line MDA-MB-468 (ATCC(registered trademark); HTB-132) at 5.0×10^6 cells/mouse subcutaneously on the back before administration of the sample were used. 24 hours after administration of the sample, the mice were sacrificed, the kidneys and the tumor were removed, and the amounts of Gd in the kidneys and in the tumor were measured using ICP-MS. The present test was carried out in 3 cases in each group, and the mean value of the 3 cases was calculated. The amount of Gd contained per kidney after administration was shown as a percentage of the amount of Gd administered (% of dose/tissue), and the amount of Gd contained per g of tumor tissue was shown as a percentage of the total amount of Gd administered (% of dose/g).

[3] = test system: human breast cancer cell line MDA-MB-468; test: Amount of tumor accumulation of Gd-labeled Fab^5 conjugates, MDA-MB-468 tumor-bearing mice (Example 8); conditions: control conjugate Ex-No. 108, mean for 2 runs, 24 hours
Description: as §3

[4] = target: human cancer-specific MUC1 peptide (Homo sapiens, UniProt P15941); test: ELISA binding activity of anti-human MUC1 antibody Fab^5 fragment conjugates (Example 6-2); conditions: each conjugate run in duplicate; Table 54; read-out: EC50
Description: as §1, with “101-113)” for “104, 108, or 112)”
as §2

[5] = design: species or system mice (BALB/c or BALB/c nu/nu); conditions: mouse, in vivo
Description: A Gd-labeled conjugate of the conjugate containing a peptide linker produced in one of the above Examples was administered from the tail vein of mice (BALB/c or BALB/c nu/nu) so that the protein mass was 0.02 mg (100 μL) per animal. After about 24 hours, the mice were sacrificed and the kidneys were removed, and the amount of Gd in the kidneys was measured using ICP-MS. The present test was carried out in 3 cases in each group, the mean value of the 3 cases was calculated, and the amount of Gd contained per kidney after administration was shown as a percentage (% of dose/tissue) of the total amount of Gd administered.
Based on the amount of Gd contained in the kidneys of the control conjugate, the proportion of decrease in the amount of Gd contained in the kidneys of each of the conjugates having a peptide linker was determined.

human cancer-specific MUC1 peptide (Homo sapiens, UniProt P15941), sequence (P15941 136-155): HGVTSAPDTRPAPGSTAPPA

EC50 [1]: 0.07 nM
EC50 [4]: 0.07 nM
B1: Ex-No 108 (conjugate)
heavy: QVQLVQSGAEVKKPGASVKVSCKASGYTFTNYGLSWVRQAPGQGLEWMGENHPGSGIIYHNEKFRGRVTLTADRSTSTAYMELSSLRSEDTAVYYCARSSGTRGFDYWGQGTLVTVSSASTKGPSVFPLAPSSKSTSGGTAALGCLVKDYFPEPVTVSWNSGALTSGVHTFPAVLQSSGLYSLSSVVTVPSSSLGTQTYICNVNHKPSNTKVDKKVEPKSCD
light: DVVMTQTPLSLSVTPGQPASISCRSSQSIVHSNGNTYLEWYLQKPGQSPQLLIYRVSNRFSGVPDRFSGSGSGTDFTLKISRVEAEDVGVYYCFQGSHGPWTFGQGTKLEIKRTVAAPSVFIFPPSDEQLKSGTASVVCLLNNFYPREAKVQWKVDNALQSGNSQESVTEQDSKDSTYSLSSTLTLSKADYEKHKVYACEVTHQGLSSPVTKSFNRGEC
modifications: non-natural residues
Renal residual amount Mean [2]: 34.67 % of dose/tissue
Amount of tumor accumulation Mean [3]: 0.92 % of dose/g
Renal residual amount (normal mice) Mean [5]: 33.00 % of dose/tissue
